This note sets out measurements from US20200199241A1 (Chugai, published 2020).

Substitutions are numbered along the chain they refer to.

T1: FcγRIIb (human, UniProt P31994 43-217, limits assumed)
T1 construct: also called FcγIIB; CD32
T1 sequence: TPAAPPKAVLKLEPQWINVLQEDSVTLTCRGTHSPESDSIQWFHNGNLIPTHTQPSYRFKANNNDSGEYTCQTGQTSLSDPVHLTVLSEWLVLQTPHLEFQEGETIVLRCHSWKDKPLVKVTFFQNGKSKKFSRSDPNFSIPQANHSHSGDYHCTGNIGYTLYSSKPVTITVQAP

T2: FcγRIIa type H (human, UniProt P12318 36-217)
T2 construct: also called FcγRIIaH; FcγRIIa(H)
T2 sequence: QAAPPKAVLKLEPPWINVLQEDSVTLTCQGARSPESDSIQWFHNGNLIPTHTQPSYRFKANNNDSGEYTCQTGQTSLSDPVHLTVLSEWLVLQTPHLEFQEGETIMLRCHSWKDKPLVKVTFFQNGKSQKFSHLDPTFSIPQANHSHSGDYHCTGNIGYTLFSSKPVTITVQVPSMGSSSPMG

T3: FcγRIIa type R (human, UniProt P12318 36-217)
T3 construct: also called FcγRIIaR; FcγRIIa(R)
T3 chain: T2 sequence with H133R

B1: IL6R-BP188/IL6R-L (antibody, human IgG1)
heavy: QVQLQESGPGLVKPSETLSLTCAVSGHSISHDHAWSWVRQPPGEGLEWIGFISYSGITNYNPSLQGRVTISRDNSKNTLYLQMNSLRAEDTAVYYCARSLARTTAMDYWGEGTLVTVSSASTKGPSVFPLAPSSKSTSGGTAALGCLVKDYFPEPVTVSWNSGALTSGVHTFPAVLQSSGLYSLSSVVTVPSSSLGTQTYICNVNHKPSNTKVDKKVEPKSCDKTHTCPPCPAPDLLGDDSVFLFPPKPKDTLMISRTPEVTCVVVDVSDEDGEVKFNWYVDGVEVHNAKTKPREEQYNSTYRVVSVLTVLHQDWLNGKEYKCKVSNKALPKPIEKTISKAKGQPREPQVYTLPPSRDELTKNQVSLTCLVKGFYPSDIAVEWESNGQPENNYKTTPPVLDSDGSFFLYSKLTVDKSRWQQGNVFSCSVMHEALHNHYTQESLSLSP
light: DIQMTQSPSSLSASVGDRVTITCRASQDISSYLNWYQQKPGKAPKLLIYYTSRLHSGVPSRFSGSGSGTDFTFTISSLQPEDIATYYCQQGNTLPYTFGQGTKVEIK
notes: Anti-IL-6R human IgG1 variant; copies: 2 + 2
B2: IL6R-BP196/IL6R-L (antibody, human IgG1)
heavy: B1 heavy with D235E, L236Y, D239G, K328A
light: B1 light
notes: as for B1
B3: IL6R-BP189/IL6R-L (antibody, human IgG1)
heavy: B1 heavy with D235E, K328A
light: B1 light
notes: as for B1
B4: IL6R-BP190/IL6R-L (antibody, human IgG1)
heavy: B1 heavy with D235E
light: B1 light
notes: as for B1
B5: IL6R-BP213/IL6R-L (antibody, human IgG1)
heavy: B1 heavy with D239G, K332R
light: B1 light
notes: as for B1
B6: IL6R-BP197/IL6R-L (antibody, human IgG1)
heavy: B1 heavy with L236Y, Y298D, K328D
light: B1 light
notes: as for B1
B7: IL6R-BP195/IL6R-L (antibody, human IgG1)
heavy: B1 heavy with L236Y, Y298D, K328A
light: B1 light
notes: as for B1
B8: IL6R-BP211/IL6R-L (antibody, human IgG1)
heavy: B1 heavy with D239G, K328A, K332R
light: B1 light
notes: as for B1
B9: IL6R-BP206/IL6R-L (antibody, human IgG1)
heavy: B1 heavy with D239G, D270H, K332R
light: B1 light
notes: as for B1
B10: IL6R-BP203/IL6R-L (antibody, human IgG1)
heavy: B1 heavy with D235E, D270H, K332R
light: B1 light
notes: as for B1
B11: IL6R-BP208/IL6R-L (antibody, human IgG1)
heavy: B1 heavy with K332R
light: B1 light
notes: as for B1
B12: IL6R-BP209/IL6R-L (antibody, human IgG1)
heavy: B1 heavy with D235E, K328A, K332R
light: B1 light
notes: as for B1
B13: IL6R-BP194/IL6R-L (antibody, human IgG1)
heavy: B1 heavy with L236Y, K328A
light: B1 light
notes: as for B1

The first assay deals with T1, FcγRIIb. Kind of assay: ratio of SPR KD values, parent IL6R-B3/IL6R-L.
Source text: (§1) Furthermore, KD(IIaR)/KD(IIb) and KD(IIaH)/KD(IIb) in the table respectively represent the value obtained by dividing the KD value of each variant for FcγRIIaR by the KD value of each variant for FcγRIIb, and the value obtained by dividing the KD value of each variant for FcγRIIaH by the KD value of each variant for FcγRIIb. KD(IIb) of the parent polypeptide/KD(IIb) of the altered polypeptide refers to the value obtained by dividing the KD value of the parent polypeptide for FcγRIIb by the KD value of each variant for FcγRIIb.
For B1, the “KD(IIb) of the parent polypeptide/KD(IIb) of altered polypeptide” value (“KD(IIb) … of altered polypeptide” below) was found to be 67.6 fold.
Take B2: the “KD(IIb) … of altered polypeptide” value stood at 13.9 fold.
Take B3: the “KD(IIb) … of altered polypeptide” value came out at 41.8 fold.
As for B4, the “KD(IIb) … of altered polypeptide” value was found to be 53.2 fold.
For B5, the “KD(IIb) … of altered polypeptide” value was found to be 17.6 fold.
Take B6: the “KD(IIb) … of altered polypeptide” value stood at 53.7 fold.
Turning to B7, the “KD(IIb) … of altered polypeptide” value stood at 62 fold.
On to B8, for which the “KD(IIb) … of altered polypeptide” value came to 13.8 fold.
For the molecule B9, the “KD(IIb) … of altered polypeptide” value turned out to be 15.8 fold.
Still for that read-out and setting: in the case of B10 it was 63.7 fold; in that of B11, 95.4 fold; in that of B12, 60.4 fold.
Still for that read-out and setting: in the case of B13 it was 59.4 fold.

The target in another assay is T1, FcγRIIb. Kind of assay: SPR (Biacore); KD for FcγRIIaR divided by KD for FcγRIIb of the same antibody; column head in Table 52-1.
Source text: as §1
Turning to B1, the “KD(IIaR)/KD(IIb)” value is 21.9.
In the case of B2, the “KD(IIaR)/KD(IIb)” value was determined as 13.4.
Regarding B3, the “KD(IIaR)/KD(IIb)” value was 18.5.
The same measure, in the same setting: in the case of B4 it was 12.3.
Same read-out and setting: in the case of B5 it was 17.7; in that of B6, 17.1.
With B7, the “KD(IIaR)/KD(IIb)” value came out at 18.2.
Turning to B8, the “KD(IIaR)/KD(IIb)” value was 18.5.
With B9, the “KD(IIaR)/KD(IIb)” value was found to be 16.1.
Regarding B10, the “KD(IIaR)/KD(IIb)” value stood at 20.5.
Same read-out and setting: in the case of B11 it was 26.3.
As to B12, the “KD(IIaR)/KD(IIb)” value is 22.7.
Take B13: the “KD(IIaR)/KD(IIb)” value was determined as 15.8.

The target of the next assay is T1, FcγRIIb. Kind of assay: SPR (Biacore), method of Example 14.
Source text: as §1
In turn, B1 yielded a Kd of 0.046 µM.
As for B2, the Kd came to 0.22 µM.
The same measure, in the same setting: in the case of B3 it was 0.074 µM; in that of B4, 0.058 µM; in that of B5, 0.18 µM.
The same measure, in the same setting: in the case of B6 it was 0.058 µM.
For B7, the Kd is 0.05 µM.
B8 displayed a dissociation constant Kd of 0.22 µM.
For B9, binding was characterised by a dissociation constant (Kd) of 0.2 µM.
As to B10, the Kd turned out to be 0.049 µM.
The molecule B11 registered a Kd of 0.032 µM.
Same read-out and setting: in the case of B12 it was 0.051 µM.
With B13, the affinity, expressed as Kd, was 0.052 µM.

The next assay has as its target T2, FcγRIIa type H. As to the kind of experiment: SPR (Biacore), method of Example 14.
Source text: as §1
The molecule B1 displayed a Kd of 16 µM.
As to B2, the Kd turned out to be 19 µM.
Regarding B3, binding was characterised by a dissociation constant (Kd) of 21 µM.
The molecule B4 showed a dissociation constant (Kd) of 17 µM.
Molecule B5 returned a Kd of 24 µM.
B6 displayed a Kd of 12 µM.
The same measure, in the same setting: in the case of B7 it was 10 µM; in that of B8, 27 µM; in that of B9, 24 µM.
Consider B10, for which the affinity, expressed as Kd, was 11 µM.
On to B11, for which binding was characterised by a dissociation constant (Kd) of 83 µM.
As to B12, binding was characterised by a dissociation constant (Kd) of 10 µM.
As for B13, the affinity, expressed as Kd, was 8.5 µM.

In another assay the target is T4, FcγRIa (human, UniProt P12314 16-292, limits assumed).
T4 construct: also called CD64
T4 sequence (P12314 16-292 limits assumed): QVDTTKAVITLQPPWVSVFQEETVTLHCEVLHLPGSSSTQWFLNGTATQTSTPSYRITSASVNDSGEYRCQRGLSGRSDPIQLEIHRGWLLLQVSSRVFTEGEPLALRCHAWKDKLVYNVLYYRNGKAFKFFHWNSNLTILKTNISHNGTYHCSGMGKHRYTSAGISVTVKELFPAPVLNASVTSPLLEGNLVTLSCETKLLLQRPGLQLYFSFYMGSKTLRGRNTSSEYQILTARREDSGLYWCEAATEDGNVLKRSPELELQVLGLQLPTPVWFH
As to the kind of experiment: SPR (Biacore), method of Example 14.
Source text: as §1
The molecule B1 displayed a Kd of 0.021 µM.
On to B2, for which the Kd was 0.014 µM.
For the molecule B3, binding was put at a Kd of 0.042 µM.
In turn, B4 displayed a Kd of 0.063 µM.
B5 gave a Kd of 0.0041 µM.
For the molecule B6, the Kd amounted to 0.019 µM.
B7 yielded a Kd of 0.023 µM.
The molecule B8 came in with a Kd of 0.0042 µM.
Same read-out and setting: in the case of B9 it was 0.0082 µM; in that of B10, 0.18 µM.
In the case of B11, the Kd is 0.019 µM.
With B12, the dissociation constant Kd came out at 0.039 µM.
For the molecule B13, the Kd is 0.024 µM.

A further assay addresses T3, FcγRIIa type R. Kind of assay: SPR (Biacore), method of Example 14.
Source text: as §1
As to B1, the affinity, expressed as Kd, was 1 µM.
The molecule B2 showed a Kd of 3 µM.
For the molecule B3, the Kd amounted to 1.4 µM.
Still for that read-out and setting: in the case of B4 it was 1.1 µM.
For the molecule B5, the affinity, expressed as Kd, was 3.1 µM.
With B6, the Kd worked out at 0.98 µM.
Regarding B7, the Kd turned out to be 0.91 µM.
As for B8, the dissociation constant (Kd) is 4.1 µM.
B9 had a Kd of 3.1 µM.
Regarding B10, the affinity, expressed as Kd, was 0.99 µM.
The same measure, in the same setting: in the case of B11 it was 0.85 µM; in that of B12, 1.2 µM.
Consider B13, for which the Kd stood at 0.82 µM.

In the next assay the target is T5, FcγRIIIa type V (human, UniProt P08637 17-208, limits assumed).
T5 construct: also called FcγRIIIaV; FcγRIIIa(V)
T5 sequence (P08637 17-208 F176V limits assumed): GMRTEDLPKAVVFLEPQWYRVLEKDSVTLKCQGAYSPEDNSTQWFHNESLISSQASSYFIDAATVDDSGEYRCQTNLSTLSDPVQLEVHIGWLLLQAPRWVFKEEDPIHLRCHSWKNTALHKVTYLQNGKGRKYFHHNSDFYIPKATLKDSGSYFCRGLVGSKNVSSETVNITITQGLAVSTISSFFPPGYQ
As to the kind of experiment: SPR (Biacore), method of Example 14.
Source text: as §1
The molecule B1 had a Kd of 58 µM.
In turn, B2 displayed a Kd of 51 µM.
Molecule B3 came in with a Kd of 49 µM.
As for B4, the Kd was 45 µM.
Consider B5, for which the Kd worked out at 63 µM.
Take B6: the Kd stood at 33 µM.
B7 had a Kd of 31 µM.
The molecule B8 yielded a Kd of 73 µM.
The same measure, in the same setting: in the case of B9 it was 69 µM; in that of B10, 72 µM; in that of B11, 53 µM.
In the case of B12, binding was characterised by a dissociation constant (Kd) of 41 µM.
B13 returned a dissociation constant (Kd) of 27 µM.

For another assay, the target named is T1, FcγRIIb. As to the kind of experiment: SPR (Biacore); KD for FcγRIIaH divided by KD for FcγRIIb of the same antibody; column head in Table 52-1.
Source text: as §1
In the case of B1, the “KD(IIaH)/KD(IIb)” value came to 350.
For B2, the “KD(IIaH)/KD(IIb)” value was found to be 85.2.
Regarding B3, the “KD(IIaH)/KD(IIb)” value was found to be 284.
Consider B4, for which the “KD(IIaH)/KD(IIb)” value amounted to 293.
B5: the “KD(IIaH)/KD(IIb)” value was 136.
Consider B6, for which the “KD(IIaH)/KD(IIb)” value turned out to be 209.
Still for that read-out and setting: in the case of B7 it was 201; in that of B8, 120.
With B9, the “KD(IIaH)/KD(IIb)” value amounted to 123.
For the molecule B10, the “KD(IIaH)/KD(IIb)” value was 227.
Turning to B11, the “KD(IIaH)/KD(IIb)” value was found to be 256.
Regarding B12, the “KD(IIaH)/KD(IIb)” value is 195.
As to B13, the “KD(IIaH)/KD(IIb)” value is 164.
